Assay results: patent publication US20190381171A1, “CO-USE OF ANTI-BCMA ANTIBODY AND ANTIBODY-COUPLED T CELL RECEPTOR (ACTR) IN CANCER THERAPY AND B CELL DISORDERS” (UNUM THERAPEUTICS INC., priority 2017, published 2019)

How the values were obtained:
NCI-H929 target cells = test: ACTR T-cell cytokine release (IFNγ, IL2; Meso Scale Discovery) in co-culture with target cells and antibody; format: cell-based, human; settings: T-cells expressing ACTR variant SEQ ID NO: 1, E:T 4:1, 24 hours, increasing antibody concentration (FIG. 4 chimeric, FIG. 9 humanized)
Description: T-cells expressing ACTR variant SEQ ID NO: 1 (effector; E) and target cells (target; T) were incubated at a 4:1, effector-to-target ratio (120,000 T cells; 30,000 target cells) with increasing concentrations of various chimeric antibodies in a 200-μL reaction volume in RPMI 1640 media supplemented with 10% fetal bovine serum. In FIG. 4, the chimeric antibodies included fucosylated and afucosylated (SEA) versions of the SG16.17 and SG16.45 anti-BCMA antibodies at a concentration range of 100-0.0005 μg/mL. In FIG. 9, humanized afucosylated (SEA) SG16.17 antibody was used at a concentration range of 3.8-0.002 μg/mL. […] Supernatants were subsequently analyzed for IFNγ and IL2 using the Meso Scale Discovery V-Plex Human IFN-γ Kit (K151QOD-4) and V-Plex Human IL-2 Kit (K151QQD-4). Briefly, the Proinflammatory Calibrator Blend, Detection Antibody Solution, and Read Buffer were prepared according to manufacturer protocols. […] Read Buffer (150 μL) was added to the plate and the plates were run on the MSD Quickplex SQ 120.
For these experiments, BCMA+ HER2− NCI− H929 and BCMA− HER2+ SKBR3 target cells were used. […] Supernatants were subsequently analyzed for IFNγ using the Meso Scale Discovery V-Plex Human IFN-γ Kit (K151QOD-4). Briefly, the Proinflammatory Calibrator Blend, Detection Antibody Solution, and Read Buffer were prepared according to manufacturer protocols. […]

U266B1 target cells = test: Activation markers (CD25, CD69) on ACTR T-cells by flow cytometry; format: cell-based, human; settings: ACTR variant SEQ ID NO: 1, E:T 1:1, 1 μg/mL antibody, 24 hours
Description: T-cells (effector; E) and target cells (target; T) were incubated at a 1:1, effector-to-target ratio (30,000 T cells; 30,000 target cells) with 1 μg/mL of anti-BCMA antibodies in a 200-μL reaction volume in RPMI 1640 media supplemented with 10% fetal bovine serum. Reactions were incubated in a CO2 (5%) incubator at 37 degrees C. for 24 hours. Geometric Mean Fluorescence intensity (gMFI) of two activation markers, CD25 and CD69 were determined in the total CD3+ CD16+ ACTR T-cell gate via flow cytometry. Briefly, cells were washed twice in staining buffer before being stained with a Live/Dead eFluor-450 dye for 30 min at 4 degrees C. After incubating in the live/dead cell stain, cells were washed twice and incubated with 100 μL of an antibody cocktail consisting of AF488-conjugated anti-human CD3 antibody, APC-conjugated anti-human CD16 antibody, PerCP-Cy5.5-conjugated anti-human CD25 antibody, and BV510-conjugated anti-human CD69 antibody. Subsequently, cells were washed twice, fixed, permeabilized, and stained for intracellular molecules prior to detection via flow cytometry. Flow cytometry gating on CD3+ CD16+ ACTR T-cells was performed after doublet and dead cell exclusion.

B1: cSG16.45SEA: afucosylated (SEA) version of the chimeric SG16.45 anti-BCMA antibody (antibody, V domains shown)
VH: EVQLVESGGGLVQPGRSLKLSCVASGFTFNDHWMTWIRQAPGRGLEWISSITNTGGATYYLDSVKGRFTISRDNAKSTLYLQMNSLRSEDTATYYCTSPGLYFDYWGQGVMVTVSS
VL: EIVLTQSPTTTAASPGEKVTITCLATSSVSVMYWYQHKSGASPKLLIYSTSSLASGVPDRFSGSGSGTSYSLTINTMEAEDAATYYCHQWSSDPPTFGSGTKLEIKR
- ACTR T-cell IFNγ and IL2 release (NCI-H929 target cells): increased potency in cytokine release when compared to their fucosylated counterparts
- levels of activation markers CD25 and CD69 (gMFI) on ACTR T-cells (U266B1 target cells): enhanced expression of CD25 and CD69 when compared to incubations with their fucosylated counterparts
